# Measured values taken from patent US20050214302A1, “Use of emmprin antagonists for the treatment of diseases associated with excessive angiogenesis” (priority 2004, published 2005).
# Experiments:
# [1] = system: HMVEC-L cells; test: Recombinant EMMPRIN stimulation of MMP-1 production by HMVEC-L cells (MMP-1 activity kit); type: cell-based, human
# Protocol: HMVEC-L cells were obtained from Clonetics, Walkersville, Md. (Cat# CC-2527, Lot# 8F1528). HMVEC-L cells were cultured under conditions recommended by the supplier. Briefly, cells were cultured in Endothelium Cell Growth Medium MV (EGM-2 MV, Clonetics, Cat#CC-3202) containing human epithelial growth factor (hEGF), hydrocortisone, human basic fibroblast growth factor (hFGF-B), vascular endothelial growth factor (VEGF), human insulin-like growth factor-1 (hIGF-1), ascorbic acid, gentamicin, 5% FBS, at 37° C., 5% CO2.
# Early passage cells (less than passage 3) were trypsinized and washed with RPMI-1640 once. Cells were resuspended in Dilution Medium (DM−Fibroblast Basic Medium+2% FBS) at a concentration of 5×100,000 cells/ml. 100 μl of the cell suspension containing 50,000 cells was added into each well in a 96 well cell culture plate. […]
# Quantitative detection of MMP-1 activity in the conditioned medium was carried out using Human MMP-1 Activity Kit (R&D Systems, Minneapolis, Minn.) (Cat#F1M00). […] MMP substrate added into each well was cleaved by active MMP-1 and the resulting fluorescence was determined using SpectraFluor Plus Plate Reader (TECAN, Zurich, Switzerland) (Cat# F129005, Ser# 94747) with the following parameters: excitation wavelength at 320 nm and emission wavelength at 405 nm.
# [2] = system: NHLF cells; test: Recombinant EMMPRIN stimulation of MMP-1 production by NHLF cells; type: cell-based, human; conditions: same treatment (20 μg/ml EMMPRIN)
# [3] = system: angiogenesis in Matrigel plugs; test: Matrigel plug angiogenesis assay in vivo; conditions: suboptimal doses of FGF or VEGF, mice, expected
# Description: The role of EMMPRIN in angiogenesis will be directly investigated in vivo using Matrigel plug assays. Matrigel is a solubilized basement membrane preparation extracted from the Engel-Holm-Swarm (EHS) mouse sarcoma, a tumor rich in extracellular matrix proteins. The major component is laminin, but Matrigel also contains trace amounts of fibroblast growth factor, TGF-beta, tissue plasminogen activator, and other growth factors that occur naturally in the EHS tumor. Matrigel is the basis for several types of tumor cell invasion assays and provides the necessary substrate for the study of angiogenesis. Matrigel forms a soft gel plug when injected subcutaneously into mice or rats and supports an intense vascular response when supplemented with angiogenic factors.
# Matrigel plugs containing suboptimal doses of angiogenic growth factors, such as basic fibroblast growth factor (FGF), or vascular endothelial cell growth factor (VEGF) can be implanted into mice to induce angiogenesis in vivo. Some of these plugs are supplemented with various doses of recombinant EMMPRIN.
molecule,measurement,setting,value
"recombinant EMMPRIN: recombinant protein corresponding to the extracellular domain of human EMMPRIN, produced in NSO cells (R&D Systems) (protein, UniProt P35613 138-323, looked up, extracellular domain) extracellular domain: EPGTVFTTVEDLGSKILLTCSLNDSATEVTGHRWLKGGVVLKEDALPGQKTEFKVDSDDQWGEYSCVFLPEPMGTANIQLHGPPRVKAVKSSEHINEGETAMLVCKSESVPPVTDWAWYKITDSEDKALMNGSESRFFVSSSQGRSELHIENLNMEADPGQYRCNGTSSKGSDQAIITLRVRSHLA",Stimulation of MMP-1 production in endothelial cells (result in words),"[1]; 0.08-20 μg/ml EMMPRIN, 1 day and 3 days, FIG. 2",dose-dependently stimulated MMP-1 production
same,MMP-1 produced by HMVEC-L cells,[1]; treated with 20 μg/ml EMMPRIN,approximately 40 ng/ml
same,MMP-1 produced by NHLF cells relative to HMVEC-L,[2],only half of that amount
same,Angiogenesis in Matrigel plugs supplemented with recombinant EMMPRIN,[3],increase in angiogenesis
